Measured values taken from paper PMC12374583 (2025).

Target: CR3 (Homo sapiens, UniProt P11215)
Test: MST

Kd: 5.73 nM
B1: Complement C3 (peptide)
chain: SSKITHRIHWESASLLR
